This note sets out measurements from US20150368327A1 (YOKOHAMA CITY UNIVERSITY, published 2015).

Numbering of substitutions follows the chain as printed.

The target in test [1] is T1, human Sema 3A protein (human, UniProt Q14563 21-771, limits assumed).
T1 construct: also called Human Sema 3A antigen; human-derived Sema 3A protein
T1 sequence (looked up): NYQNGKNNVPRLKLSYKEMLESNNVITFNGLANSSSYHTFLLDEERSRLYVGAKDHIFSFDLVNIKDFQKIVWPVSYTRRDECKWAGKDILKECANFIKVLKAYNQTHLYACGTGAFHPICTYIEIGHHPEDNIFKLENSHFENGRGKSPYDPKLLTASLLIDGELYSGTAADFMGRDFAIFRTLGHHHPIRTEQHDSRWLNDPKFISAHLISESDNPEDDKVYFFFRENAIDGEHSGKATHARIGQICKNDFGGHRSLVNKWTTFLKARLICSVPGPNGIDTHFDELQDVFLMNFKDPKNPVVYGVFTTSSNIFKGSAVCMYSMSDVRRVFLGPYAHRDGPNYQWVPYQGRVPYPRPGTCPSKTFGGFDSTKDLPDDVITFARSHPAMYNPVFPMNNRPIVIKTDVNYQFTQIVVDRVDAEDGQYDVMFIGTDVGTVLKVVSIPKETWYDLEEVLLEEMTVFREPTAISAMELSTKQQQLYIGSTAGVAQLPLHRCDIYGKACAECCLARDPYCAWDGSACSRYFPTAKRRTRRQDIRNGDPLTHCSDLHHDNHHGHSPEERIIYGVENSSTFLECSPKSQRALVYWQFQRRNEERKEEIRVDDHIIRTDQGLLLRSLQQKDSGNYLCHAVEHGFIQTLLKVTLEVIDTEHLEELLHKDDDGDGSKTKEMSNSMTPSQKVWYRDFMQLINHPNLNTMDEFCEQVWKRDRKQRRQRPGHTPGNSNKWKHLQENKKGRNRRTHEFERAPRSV
Description: direct solid phase ELISA screening with human Sema 3A as antigen. For orientation: ELISA stands for enzyme-linked immunosorbent assay.

In test [2] the target is T2, mouse Sema 3A protein (mouse, UniProt O08665 21-772, limits assumed).
T2 construct: Produced from mouse Sema 3A protein expressing cells; also called Mouse Sema 3A antigen
T2 sequence (looked up): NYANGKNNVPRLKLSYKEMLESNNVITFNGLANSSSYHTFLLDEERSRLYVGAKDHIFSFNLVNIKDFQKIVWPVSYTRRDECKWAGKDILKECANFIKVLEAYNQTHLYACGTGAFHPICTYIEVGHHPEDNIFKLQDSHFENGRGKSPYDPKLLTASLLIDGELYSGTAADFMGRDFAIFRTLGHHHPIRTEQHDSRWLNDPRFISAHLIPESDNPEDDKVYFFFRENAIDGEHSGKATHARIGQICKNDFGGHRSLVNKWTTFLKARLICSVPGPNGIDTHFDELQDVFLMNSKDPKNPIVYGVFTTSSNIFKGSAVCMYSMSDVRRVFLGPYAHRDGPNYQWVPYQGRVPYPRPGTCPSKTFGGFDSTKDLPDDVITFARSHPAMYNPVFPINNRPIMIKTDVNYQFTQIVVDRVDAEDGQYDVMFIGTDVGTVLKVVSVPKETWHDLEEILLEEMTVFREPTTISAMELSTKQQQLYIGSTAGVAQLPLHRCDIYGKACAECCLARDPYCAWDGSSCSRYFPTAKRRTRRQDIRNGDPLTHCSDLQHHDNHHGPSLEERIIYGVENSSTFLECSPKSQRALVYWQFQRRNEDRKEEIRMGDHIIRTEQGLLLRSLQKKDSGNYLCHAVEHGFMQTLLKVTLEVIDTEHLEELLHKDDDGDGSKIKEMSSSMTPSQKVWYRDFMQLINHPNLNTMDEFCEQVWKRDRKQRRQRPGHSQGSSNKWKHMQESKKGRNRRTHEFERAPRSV
Description: direct solid phase ELISA screening with mouse Sema 3A as antigen. The protocol: A direct solid phase ELISA was carried out according to the following process. In Day 6 after the step 2-2), 2.5 μg/mL of mouse Sema 3A protein was dispensed into a 384 well Maxisorp (Nunc) by 20 μL each and left to stand overnight. Ovalbumin (OA) and rabbit IgG (rIgG) were immobilized in the plate as negative controls in similar manner in order to examine the specificity of antibodies. On the next day, the content in the plate was removed and 45 μL of blocking solution (PBS buffer containing 1% BSA) was added thereto, followed by incubation at room temperature for one hour. The plate was washed five times with 120μL/well of ELISA washing buffer (PBS containing 0.05 wt % Tween 20), to which were added culture supernatants derived from the colony obtained by selection in the step 2-2) by 25 μL/well and then incubated at room temperature for one hour. The plate was washed five times with 120 μL/well of ELISA washing solution and then to which was added 25 μL of diluent in which a secondary antibody was diluted 2000 times with a blocking buffer and incubated at room temperature for 45 minutes. Anti-chicken IgM-HRP (Bethyl Laboratories, Inc.) was used as a secondary antibody. […] Subsequently, the reaction was quenched with 25 μL of 1N sulfuric acid to determine the absorbance at 450 nm.

For another test, the target named is T3, ovalbumin (OVA) (UniProt P01012 2-386).
T3 sequence (looked up): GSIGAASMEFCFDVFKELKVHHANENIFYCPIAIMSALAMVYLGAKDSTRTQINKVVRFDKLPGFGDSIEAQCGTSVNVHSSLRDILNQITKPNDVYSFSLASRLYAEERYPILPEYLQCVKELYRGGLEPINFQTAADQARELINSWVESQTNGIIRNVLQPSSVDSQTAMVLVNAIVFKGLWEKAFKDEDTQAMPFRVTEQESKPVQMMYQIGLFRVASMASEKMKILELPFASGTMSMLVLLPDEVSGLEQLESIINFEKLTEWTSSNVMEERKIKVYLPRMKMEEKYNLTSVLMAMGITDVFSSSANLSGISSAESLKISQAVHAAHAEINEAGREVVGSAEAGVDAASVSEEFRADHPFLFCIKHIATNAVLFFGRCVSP
Description: antigen solid phase ELISA: coated ovalbumin, anti-human lambda light chain-HRP, A450. On the procedure:
(§1) The obtained avian-mouse chimeric antibody in Example 1 and the obtained humanized antibodies (Humanized-1 and Humanized-2) and avian-human chimeric antibody in Example 2 were measured for antigenic specificity by antigen solid phase ELISA with PBS buffer. The obtained avian-mouse chimeric antibody in Example 1, which was labeled with biotin, was also measured for antigenic specificity. CL18M (+) avian-mouse chimeric antibody, which served as a negative control, was also measured for antigenic specificity. Particular measurement conditions were as follows.
(§2) Firstly, 2.5 μg/mL of antigen (mouse and human Sema 3A protein) was dispensed into a 384 Well MaxiSorp Plate (Nunc) and reacted overnight at 4° C. in order to coat the plate with the antigen. Otherwise, ovalbumin (OVA) and bovine serum albumin (BSA) were immobilized in the plate as negative controls in similar manner in order to examine specificity of antibodies. After reaction, the plate was washed three times with 50 μL/well of washing solution (PBS containing 0.05% Tween 20), to which was added 25 μL/well of blocking solution (PBS buffer containing 1% bovine serum albumin), and the mixture was reacted for 30 minutes. The resultant product was washed three times with 50 μL/well of washing solution, to which were added 20 μL/well of respective antibodies and the mixture was reacted for one hour. The resultant product was washed five times with 50 μL/well of washing solution, to which was added 20 μL of diluent in which anti-human λ light chain goat antibody labeled with horseradish peroxidase (HRP) (SouthernBiotech) was diluted 4000 times with PBS buffer, in which anti-mouse IgG2A goat antibody labeled with horseradish peroxidase (HRP) (Bethyl Laboratories, Inc.) was diluted 2000 times with PBS buffer or in which streptavidin labeled with horseradish peroxidase (HRP) (Thermo Fisher Scientific K.K.) was diluted 10000 times with PBS buffer and the mixture was reacted for one hour. […] The absorbance was measured at 450 nm using Infinite M1000 (Tecan Trading AG).

Test [3] has as its target bovine serum albumin (BSA) (bovine, UniProt P02769 25-607). Description: antigen solid phase ELISA: coated BSA, anti-human lambda light chain-HRP, A450. On the procedure: as §1, §2
Test [4] concerns the target T2, mouse Sema 3A protein. Description: competitive ELISA on plate-coated mouse Sema 3A; competitor biotin-labelled avian-mouse chimeric antibody (clone No. 4-2) at 60 ng/mL. On the procedure: (§3) The obtained clone No. 4-2-derived avian-mouse chimeric antibody in Example 1, the obtained humanized antibodies in Example 2 (Humanized-1 and Humanized-2) and avian-human chimeric antibody were subjected to competitive ELISA to evaluate affinity to the antigen. CL18M (+) avian-mouse chimeric antibody, which served as a negative control, was also measured for affinity to the antigen. Particular measurement conditions were as follows.
(§4) Firstly, 2.5 μg/mL of antigen (mouse and human Sema 3A protein) was dispensed into a 384 Well MaxiSorp Plate (Nunc) and reacted overnight at 4° C. in order to coat the plate with the antigen. The next day, the plate was washed three times with 50 μL/well of washing solution (PBS containing 0.05% Tween 20), to which was added 25 μL/well of blocking solution (PBS containing 1% bovine serum albumin) and the mixture was reacted for 30 minutes. Each of humanized antibodies (Humanized-1 and Humanized-2), avian-human chimeric antibody and avian-mouse chimeric antibody was subjected to serial doubling dilution, to which was mixed anti-Sema 3A avian-mouse chimeric antibody labeled with biotin to the final concentration of 60 ng/mL, and the mixture was reacted with the antigen solid phase plate which was washed three times with 50 μL/well of washing solution for one hour. The plate was washed five times with 50 μL/well of washing solution, to which was added 20 μL/well of diluent in which streptavidin labeled with horseradish peroxidase (HRP) (Thermo Fisher Scientific K.K.) was diluted 10000 times with PBS buffer and the mixture was reacted for 30 minutes. The plate was washed five times with 50 μL/well of washing solution, to which was added 20 μL/well of TMB+(Dako) and the mixture was chromogenically reacted for 20 minutes. Subsequently, to the each well was added 20 μL, of 1M sulfuric acid to quench the reaction. The absorbance was measured at 450 nm using Infinite M1000 (Tecan Trading AG).

Test [5] has as its target T1, human Sema 3A protein. The experiment in a line: competitive ELISA on plate-coated human Sema 3A; competitor biotin-labelled avian-mouse chimeric antibody (clone No. 4-2) at 60 ng/mL. The protocol:
as §3, §4

bovine serum albumin (BSA), sequence (P02769 25-607 limits assumed): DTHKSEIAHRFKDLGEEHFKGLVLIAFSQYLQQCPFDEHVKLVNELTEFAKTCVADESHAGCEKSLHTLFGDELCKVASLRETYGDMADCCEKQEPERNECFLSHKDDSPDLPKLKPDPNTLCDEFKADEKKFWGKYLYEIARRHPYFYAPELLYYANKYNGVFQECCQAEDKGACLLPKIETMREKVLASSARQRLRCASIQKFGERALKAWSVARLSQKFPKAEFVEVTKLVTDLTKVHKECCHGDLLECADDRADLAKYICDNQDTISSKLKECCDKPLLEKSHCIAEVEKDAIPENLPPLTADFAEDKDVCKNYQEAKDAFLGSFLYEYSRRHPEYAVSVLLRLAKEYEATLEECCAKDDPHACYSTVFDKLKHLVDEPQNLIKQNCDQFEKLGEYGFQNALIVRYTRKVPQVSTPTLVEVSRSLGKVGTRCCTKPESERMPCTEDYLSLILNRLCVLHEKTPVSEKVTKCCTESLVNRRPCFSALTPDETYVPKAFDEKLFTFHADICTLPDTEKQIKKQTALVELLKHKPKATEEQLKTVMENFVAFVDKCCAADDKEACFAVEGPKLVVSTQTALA

B1: Anti-Sema 3A avian-mouse chimeric antibody (clone No. 165 strain-derived) (antibody, V domains shown)
VH: AVTLDESGGGLQTPGGGLSLVCKASGFTFSSYEMQWVRQAPGKGLEWVAGIYTGSTWYGAAVKGRATISRDNGQSTVRLQLNNLRAEDTAIYYCAKSGIGVNSAAFIDAWGHGTEVIVSS
VL: ALTQPASVSANPGETVKITCSGGGSYGGSYYYGWYQQKAPGSAPVTVIYNNNKRPSNIPSRFSGSLSGSTNTLTITGVRADDEAVYFCGSADNSGTAFGAGTTLTVL
notes: IgG from DT40 cells in which the constant region of chicken IgM was replaced with that of mouse IgG
With B1, the binding result in the test with human Sema 3A protein [1] is given as “binds”.

B2: Anti-Sema 3A avian antibody (clone No. 255-72 strain-derived) (antibody, V domains shown)
VH: B1 VH with G17A, T53S, A90G, I91T, V101F, A105G, F106S
VL: B1 VL with G33S, Y35H, A39S, P44L, N50Y, N57D, T96S
notes: Avian (chicken) IgM
With B2, in the test with mouse Sema 3A protein [2], the binding result is listed as “binds”.

B3: Anti-Sema 3A avian antibody (clone No. 240-40 strain-derived) (antibody, V domains shown)
VH: AVTLDESGGGLQTPGGALSLVCKASGFTFSSYDMNWVRQAPGKGLEWVAGIYSGSSTYYGAAVKGRATISRDNGQSTLRLQLNNLRAEDTGIYYCAKSAIPVNSAGSIDAWGHGTEVIVSS
VL: B1 VL with G33S, Y35H, A39S, P44L, N50Y, N57D, N93T
notes: Avian (chicken) IgM
As for B3, the binding result with mouse Sema 3A protein [2] is on record as “binds”.

B4: Anti-Sema 3A avian-mouse chimeric antibody (clone No. 582 strain-derived) (antibody, V domains shown)
VH: B1 VH with G17A, F29M, G50A, G54R, A90G, I91T, V101L
VL: B1 VL with N50T
notes: as for B1
B4: the binding result in the test with human Sema 3A protein [1] was “binds”.

B5: Anti-Sema 3A humanized antibody (Humanized-1) (clone No. 4-2 strain-derived) (antibody, human IgG1, lambda, V domains shown)
VH: EVQLLESGGGLVQPGGSLRLSCAASGFTFSSYPMGWVRQAPGKGLEWVAGIDDDGDSDTRYAPAVKGRATISRDNSKNTVYLQMNSLRAEDTAVYYCAKHTGIGANSAGSIDAWGQGTLVTVSS
VL: SYELTQPPSVSVSPGQTARITCSGGGSYTGSYYYGWYQQKPGQAPVTMIYYNNKRPSDIPERFSGSLSGTTNTLTISGVQAEDEADYYCGSADNSGDAFGTGTKVTVLG
notes: Human IgG1 heavy and human lambda light constant regions
In the case of B5, the binding result (with ovalbumin (OVA); in test [3]) was “no binding (tested: about 2 µg/mL)” in each case. The IC50 (in general, the concentration at which inhibition is half-maximal) in the test with mouse Sema 3A protein [4] was 0.12 µg/mL; with human Sema 3A protein [5], 0.071 µg/mL.

B6: Anti-Sema 3A humanized antibody (Humanized-2) (clone No. 4-2 strain-derived) (antibody, human IgG1, lambda, V domains shown)
VH: B5 VH
VL: B5 VL with M48V
notes: as for B5
Take B6: the binding result (with ovalbumin (OVA); in test [3]) was “no binding (tested: about 2 µg/mL)” each time. In addition, the IC50 in the test with mouse Sema 3A protein [4] is 0.157 µg/mL; with human Sema 3A protein [5], 0.101 µg/mL.

B7: Anti-Sema 3A avian-human chimeric antibody (clone No. 4-2-derived) (antibody, human IgG1)
heavy: not shown
light: ALTQPASVSANLGGTVKITCSGGGSYTGSYYYGWYQQKSPGSALVTMIYYNNKRPSDIPSRFSGSLSGSTNTLTITGVRADDEAVYFCGSADNSGDAFGAGTTLTVLGQPKANPTVTLFPPSSEELQANKATLVCLISDFYPGAVTVAWKADSSPVKAGVETTTPSKQSNNKYAASSYLSLTPEQWKSHRSYSCQVTHEGSTVEKTVAPTECS
B7: the binding result (with ovalbumin (OVA); in test [3]) was “no binding (tested: about 2 µg/mL)” throughout. Besides, the half-maximal inhibitory concentration (IC50) in the test with mouse Sema 3A protein [4] worked out at 0.112 µg/mL; in the test with human Sema 3A protein [5] it was 0.054 µg/mL.
